Laboratory results reported in the supplement of paper PMC12764529.
± gives the half width of the 95% confidence interval.

Key:
[1] = folding stability dG unfold from trypsin proteolysis; higher = more stable
How it was run: (§1)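 K50 was inferred by Bayesian fitting of sequencing counts obtained after protease digestion of designed mini-proteins. Unfolding free energy was derived by comparison with a sequence-predicted unfolded-state K50 and a shared folded-state K50, for each protease or both combined. The mini-proteins were under 80 residues, had no cysteine, were carried in a PA-tagged cDNA display construct, and were kept only if AlphaFold2 dimer inter-PAE exceeded 15.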

[2] = folding stability dG unfold from chymotrypsin proteolysis; higher = more stable
How it was run: as §1

[3] = folding stability dG unfold (combined trypsin and chymotrypsin); higher = more stable
How it was run: as §1

Sequence	folding stability dG unfold [1]	folding stability dG unfold [2]	folding stability dG unfold [3]
SAGGEKVTVTVTTETKTVTVTVYKAPAPKFKVTEITLELDENGNLRLTIKLENGETLEFDSLEDLLAALSAG [r5_618_TrROS_Hall]	2.77 ± 0.079 kcal/mol	3.17 ± 0.15 kcal/mol	2.73 ± 0.3 kcal/mol
SAGGSVITEEEKEKIKKEYPNLDIKLKALKPGETITYPNGTKVYGSPNGFLVEITNPDGTKTVIKESAGGSA [r2_166_JUSTAS]	0.638 ± 0.026 kcal/mol	0.498 ± 0.16 kcal/mol	0.604 ± 0.11 kcal/mol
SAGGSAGGSAMKLKVPTKDGKVYEVTVVDYDPENEKVVVKNPDTDELYTFSLEDFKKILEANSAGGSAGGSA [r18_161_TrMRF]	2.72 ± 0.17 kcal/mol	3.55 ± 0.08 kcal/mol	3.36 ± 0.12 kcal/mol
SAGGSALADRIAELARELGFEPVEIRYDPETGEVYALVRKPGGLLLRMRVEVDDDELHIEIEPLTDSAGGSA [r15_561_TrMRF]	4.34 ± 0.1 kcal/mol	5.27 ± 0.058 kcal/mol	5.18 ± 0.095 kcal/mol
SAGAIERILEWLKDQPPGDEVPIPIRLPNGWYIKINIEYNPEENKPKIEVEYYDPDDGKPRQEQKFTIPSAG [r5_35_TrROS]	1.59 ± 0.077 kcal/mol	0.899 ± 0.17 kcal/mol	1.31 ± 0.25 kcal/mol
SAGGSDGEMITYPFLLPDGYLITIWISPENGQITEIEIMPIPAPPPEPPVEPKYGRDDGNGNKKYDSAGGSA [r2_78_TrROS]	1.14 ± 0.047 kcal/mol	1.72 ± 0.088 kcal/mol	1.52 ± 0.16 kcal/mol
SAGGSAKIDIEVDPEDGYIRIKLEVQHNDEPVKATMWYPLPDDGMFIRIRFDMPNGKIEEIETIPPSAGGSA [r2_331_TrROS]	2.69 ± 0.14 kcal/mol	4.07 ± 0.12 kcal/mol	3.91 ± 0.27 kcal/mol
SAGGSAGGSAGGMITTGITVSATDPNSSTSYTVTVPSSVPSSTFPANTAVGSAALAKLLASAGGSAGGSAGG [r17_412_JUSTAS]	-0.554 ± 0.19 kcal/mol	-0.225 ± 0.25 kcal/mol	-0.449 ± 0.21 kcal/mol
SAGGSAGGSAGGWYRIEIEFGNKPREYVVPGAPPDEAADMLQDPGIKNVKVEPLPPEQLKSAGGSAGGSAGG [r7_502_TrROS]	-0.817 ± 0.65 kcal/mol	0.537 ± 0.16 kcal/mol	0.174 ± 0.25 kcal/mol
SAGGANIHVRMENPGDGKPMSFMIPVKEVREAKQEGKDEIKIPFGGGPMKVEIEPLPDGWVHIRMRMPSAGG [r13_171_TrROS]	0.417 ± 0.27 kcal/mol	-0.0135 ± 0.4 kcal/mol	0.201 ± 0.26 kcal/mol
SAGEVKIEISVEKVGGKYIVRIKVTVDGKEYEYEFPAGKSVEELAKELEKKLNLKVKKIEVEVRKLPPKSAG [r5_181_TrROS_Hall]	2.88 ± 0.11 kcal/mol	3.47 ± 0.12 kcal/mol	3.28 ± 0.25 kcal/mol
SAGGNNIMIWIRKNPKEGKRKIMIYTDSPSWVEMIAEEAKDPGFKIVGPMTVEEAAQKMGFPPDLFISAGGS [r16_438_TrROS]	1.09 ± 0.14 kcal/mol	1.29 ± 0.15 kcal/mol	1.27 ± 0.2 kcal/mol
SAGGSAGGGMPISISITVTLSDGTVLEFTVTVPENAPDPASVAAALAAEIKAAHPDVAVTFTPASAGGSAGG [r6_132_JUSTAS]	0.849 ± 0.054 kcal/mol	1.72 ± 0.025 kcal/mol	1.53 ± 0.077 kcal/mol
SAGGIVVKVADGSYVRIVVYDPNNPVPRIETFPGGGVDDVIAAIAASPSFPNTVVYVERFDDGKPYPASAGG [r13_914_TrMRF]	0.871 ± 0.043 kcal/mol	0.664 ± 0.055 kcal/mol	0.747 ± 0.075 kcal/mol
SEVEVTVTVTLTRRLPDGREREVTVTLTLRLEFDPELSEEELESPELRKRLEELRREALERARRLAEELASA [r9_237_TrROS_Hall]	4.64 ± 0.18 kcal/mol	6.52 ± 0.22 kcal/mol	> 6 kcal/mol
SGSFKLLKVEEHPDNPSITAVLTFPDGSTATLRFRPDGSWTGYVESTGKPFTAVSGENELKLFVPEELTLSA [r9_233_TrMRF]	0.67 ± 0.059 kcal/mol	0.319 ± 0.14 kcal/mol	0.523 ± 0.095 kcal/mol
SAGGSAGGSAGMTFVITDKNGKETTISLEEAAKLLGIPVEEITEEELKEFLEKKVKTIEKISSAGGSAGGSA [r18_403_JUSTAS]	0.898 ± 0.074 kcal/mol	2.6 ± 0.046 kcal/mol	2.18 ± 0.17 kcal/mol
SAGMKITVKAVLKKGEKEYEVEFEADSLEEIIGAILELYEKLNFDELRVKIKIGDKEYEIELPFLIPDESAG [r5_946_TrMRF]	4.28 ± 0.41 kcal/mol	4.2 ± 0.68 kcal/mol	4.24 ± 0.94 kcal/mol
SASPSETTTYTVELTSTDPSLTPEDLAERAREEFEAALPPGTRVEVEVVSVTPIPETGTTRYTIRITVRRSA [r9_706_JUSTAS]	5.18 ± 0.1 kcal/mol	4.26 ± 0.046 kcal/mol	4.55 ± 0.027 kcal/mol
SAGGSAGGSAGGIKDVKITEFERHPENNWYEVKISIPNGKPVEIPMNPGQSAEDILDQISAGGSAGGSAGGS [r10_984_TrROS]	-0.418 ± 0.19 kcal/mol	0.651 ± 0.045 kcal/mol	0.421 ± 0.2 kcal/mol
SAGGSAGGSKMVLKVTLENGKTIEIEAGETIEEIKAKIEEEFGKPVKIKVEKVSAEELGLKPESAGGSAGGS [r12_379_TrROS_Hall]	0.304 ± 0.13 kcal/mol	1.59 ± 0.055 kcal/mol	1.33 ± 0.17 kcal/mol

Sequence	folding stability dG unfold [1]	folding stability dG unfold [2]	folding stability dG unfold [3]
SAGGSAMIEIEINGKKYKIEIVKVEEKDGKVKVKIKIKDKETGKEIEIEIEMPKEELEKLLKEILSSAGGSA [r15_944_TrROS_Hall]	2.79 ± 0.27 kcal/mol	3.97 ± 0.28 kcal/mol	3.65 ± 0.48 kcal/mol
SAGGSAKVIMFPSLEEALDLAKEAMGHGKPIQIFLPDGYMIEIEVKPDPDGKPKIDIKWRKLPPDDSAGGSA [r15_761_TrROS]	2.02 ± 0.13 kcal/mol	2.8 ± 0.074 kcal/mol	2.55 ± 0.21 kcal/mol
SAGGSAGGSAGGMYYAIITNKNGKKKIIKFKSLEEMEEAAKKNNIKIEIIPKEELEKLLSAGGSAGGSAGGS [r10_66_TrROS_Hall]	3.56 ± 0.11 kcal/mol	3.64 ± 0.043 kcal/mol	3.65 ± 0.069 kcal/mol
SAGMVRIERDGDELLIEFEFPEDEPEAVRALIEAIESLGLEVVEAEIEAEPGEGDLRRVRLRFKIKPLESAG [r5_739_TrMRF]	3.95 ± 0.22 kcal/mol	4.58 ± 0.083 kcal/mol	4.39 ± 0.15 kcal/mol
SDKVEIWIPIPDGFWVRIKYDKPGKREITIWMPEDNPEFRKHGSMDQFIKHLARKLGLDPDKVKVDMYPMSA [r9_401_TrROS]	3.13 ± 0.1 kcal/mol	4.11 ± 0.098 kcal/mol	3.69 ± 0.14 kcal/mol
SAGGSAGGSAMVRIEFENGLVAEFPSDLPLEEVKEKAVELAKLLSNDKKPVKVKILDIKEEGSAGGSAGGSA [r18_213_TrMRF]	0.14 ± 0.15 kcal/mol	0.763 ± 0.09 kcal/mol	0.407 ± 0.17 kcal/mol
SAGGSAGGSAGGSGMVNLPEPIKVTKEEPLPDGSVRYTIEYPDSTITVFKYPDGIKIESSAGGSAGGSAGGS [r4_280_JUSTAS]	0.35 ± 0.049 kcal/mol	0.29 ± 0.24 kcal/mol	0.393 ± 0.1 kcal/mol
SAGGSAGGSNKKKKTIMFTIKLDVPEGTPTAEEIADELKELSPNVEIDNIMFTPNEVYIMIKVSAGGSAGGS [r12_454_TrROS]	1.16 ± 0.077 kcal/mol	1.84 ± 0.062 kcal/mol	1.61 ± 0.18 kcal/mol
SAGGSAGGSAGGMVVLKTPERFVVVESVEVYVPVRDPDGTPVRWSPVRTEVRVTVIPPLASAGGSAGGSAGG [r7_3_JUSTAS]	1.34 ± 0.038 kcal/mol	2.13 ± 0.057 kcal/mol	1.86 ± 0.058 kcal/mol
SAGSMLLIKITITFKDPNGNLLKTIPIEKEADPNDPEAIEKAKEEAEKLAEELLPEDELAEVKAEVLLLSAG [r5_793_JUSTAS]	1.73 ± 0.11 kcal/mol	2.36 ± 0.097 kcal/mol	2.24 ± 0.19 kcal/mol
SAGGSAGPLPNEKVEVTLTIPLNVLVLDEDGEPLTPEEIARRVRELFSDVSVTLEPGDRLVITLTESAGGSA [r15_645_TrMRF]	2.006 ± 0.015 kcal/mol	1.7 ± 0.022 kcal/mol	1.85 ± 0.049 kcal/mol
SAGGKKVKIKVTIVIKVEPGESVEEIAKKLAEELGLKVEVKVEVVKRKDGSLYVVIEVEIELPEELKPSAGG [r13_590_TrROS_Hall]	2.3 ± 0.16 kcal/mol	3.18 ± 0.24 kcal/mol	2.85 ± 0.56 kcal/mol
SAGGSAGGSAGGKKYKVVSIEKTKDYVRITIYNEETGELKTFTFPPGSTVTIKPGDTLTSAGGSAGGSAGGS [r10_834_TrROS_Hall]	3.88 ± 0.2 kcal/mol	4.53 ± 0.15 kcal/mol	4.42 ± 0.12 kcal/mol
SAGGSAGGSSMPIYTVTVTYSDGTVRTYELTPEEIEAFAAEVPDAEVTELPPGKVEVTVKIPASAGGSAGGS [r20_231_JUSTAS]	2.01 ± 0.096 kcal/mol	2.49 ± 0.027 kcal/mol	2.33 ± 0.07 kcal/mol
SMKIKIEKVEDGYYKIKIYDKKTKKEYTIIVPKNMKPGQVELVNRNGKKITMTLEEIKKLLPPGAEVEIVSA [r9_250_TrROS_Hall]	2.01 ± 0.074 kcal/mol	2.14 ± 0.051 kcal/mol	2.21 ± 0.1 kcal/mol
SMMKIRIVNKETKEEIEEIEIEKNEDGSYTIKIKIKKNGKTYEIEIKLPKGMKIEELLKKLGIEKAEIEPSA [r9_492_TrROS_Hall]	1.55 ± 0.049 kcal/mol	1.98 ± 0.11 kcal/mol	1.79 ± 0.11 kcal/mol
SGEPVIVKITFPDGTVLEIEFEGTPEEVKEAVEEEIKEYAKKHGLKPGEFKVEVIKAGDKTKETYTIKVESA [r9_1193_TrMRF]	1.5 ± 0.098 kcal/mol	2.03 ± 0.071 kcal/mol	1.87 ± 0.15 kcal/mol
SAGGSAGGSAGGKKTINVEIVKIEVTKNKKTNEYTVKIYIKDTGKTITLTVKPGDIIKISAGGSAGGSAGGS [r10_819_TrROS_Hall]	1.42 ± 0.064 kcal/mol	3.28 ± 0.1 kcal/mol	3.1 ± 0.21 kcal/mol
SAGGSAGGSAGGSVTISYNPETGTVVISSPKNKKIITINAENYTPEEILEKAKEAGIDLSAGGSAGGSAGGS [r4_49_TrMRF]	0.613 ± 0.035 kcal/mol	2.02 ± 0.056 kcal/mol	1.64 ± 0.045 kcal/mol
SAGGSAGGSAGGMKVYRIGPDLYLVENEDGSLRIYNRDTGKVFTFKPGETITITIPPELLSAGGSAGGSAGG [r7_299_TrROS_Hall]	2.18 ± 0.075 kcal/mol	2.79 ± 0.059 kcal/mol	2.7 ± 0.11 kcal/mol
SAGGSAGGSAGGKTVLISLEDLEALKKLPPGAKVKIEPIKTPEGTVYRVNVETGKIEKVPSAGGSAGGSAGG [r7_765_TrROS_Hall]	-0.24 ± 0.21 kcal/mol	0.175 ± 0.26 kcal/mol	0.0992 ± 0.22 kcal/mol
